According to article PMC9909335, “Structure-guided design of a potent Clostridioides difficile toxin A inhibitor” (Frontiers in Microbiology, 2023):

Assays:
Details in all cases: both partners purified
[1] = target: T1, TcdA-A2 fragment (C-terminal CROPs domain fragment of TcdA, aa 2,556–2,710 of TcdA10463) (Clostridioides difficile; paper: …); experiment: SPR
T1 construct: source: recombinant (Greco et al., 2006)

[2] = target: T1, TcdA-A2 fragment (C-terminal CROPs …); experiment: SEC-MALS
[3] = target: T2, Clostridioides difficile toxin A (TcdA), full-length (Clostridioides difficile, strain of …, UniProt P16154); experiment: ELISA
T2 construct: also called full-length TcdA

Row | Binder | T1/2 (SPR-calculated half-life, 0.693/kd) [1] [min] | koff [1] [s⁻¹] | stoichiometry N [2] | EC50 [3] [nM]
1 | VHH A20 (A20.1) (VHH) VHH: QVQLVESGGGLAQAGGSLRLSCAASGRTFSMDPMAWFRQPPGKEREFVAAGSSTGRTTYYADSVKGRFTISRDNAKNTVYLQMNSLKPEDTAVYYCAAAPYGANWYRDEYAYWGQGTQVTVSS | 1.8 | 0.0075 | 1 Ab per Ag (1:1) | 0.194 ± 0.013
2 | VHH A26 (A26.8) (VHH) VHH: QVKLEESGGGLVQAGGSLRLSCAASERTFSRYPVAWFRQAPGAEREFVAVISSTGTSTYYADSVKGRFTISRDNAKVTVYLQMNNLKREDTAVYFCAVNSQRTRLQDPNEYDYWGQGTQVTVSS | 0.6 | 0.025 | 1 Ab per Ag (1:1) | 14.6
